Source: paper PMC6039492

What was measured:
[1] = biological target: GABAB receptor (heterodimer of GABAB1 and GABAB2), untagged and SNAP-tagged subunits in three combinations (rat) (UniProt Q9Z0U4); assay: two-photon scanning number and brightness (sN&B) fluctuation microscopy; live cultured rat hippocampal neurons, GABAB1 and/or GABAB2 SNAP-tagged and labelled with Alexa488, corrected for the theoretical number of fluorophores per heterodimer; across expression levels
[2] = biological target: mGlu2 mutated to be locked in the inactive conformation (HA-ST-mGlu2-515NGlyc-L698C-L729C-F756D), cross-linked with CuP (rat) (UniProt P31421); assay: two-photon scanning number and brightness (sN&B) fluctuation microscopy; live cultured rat hippocampal neurons, SNAP-tag labelled with Alexa488, incubated with 150 μM CuP for the last 10 min of labelling, imaged in the absence of ligand; 90-600 subunits/Veff; apparent stoichiometry (lower with CuP)

GABAB receptor (heterodimer of GABAB1 and GABAB2), untagged and SNAP-tagged subunits in three combinations, sequence (Q9Z0U4 20-960): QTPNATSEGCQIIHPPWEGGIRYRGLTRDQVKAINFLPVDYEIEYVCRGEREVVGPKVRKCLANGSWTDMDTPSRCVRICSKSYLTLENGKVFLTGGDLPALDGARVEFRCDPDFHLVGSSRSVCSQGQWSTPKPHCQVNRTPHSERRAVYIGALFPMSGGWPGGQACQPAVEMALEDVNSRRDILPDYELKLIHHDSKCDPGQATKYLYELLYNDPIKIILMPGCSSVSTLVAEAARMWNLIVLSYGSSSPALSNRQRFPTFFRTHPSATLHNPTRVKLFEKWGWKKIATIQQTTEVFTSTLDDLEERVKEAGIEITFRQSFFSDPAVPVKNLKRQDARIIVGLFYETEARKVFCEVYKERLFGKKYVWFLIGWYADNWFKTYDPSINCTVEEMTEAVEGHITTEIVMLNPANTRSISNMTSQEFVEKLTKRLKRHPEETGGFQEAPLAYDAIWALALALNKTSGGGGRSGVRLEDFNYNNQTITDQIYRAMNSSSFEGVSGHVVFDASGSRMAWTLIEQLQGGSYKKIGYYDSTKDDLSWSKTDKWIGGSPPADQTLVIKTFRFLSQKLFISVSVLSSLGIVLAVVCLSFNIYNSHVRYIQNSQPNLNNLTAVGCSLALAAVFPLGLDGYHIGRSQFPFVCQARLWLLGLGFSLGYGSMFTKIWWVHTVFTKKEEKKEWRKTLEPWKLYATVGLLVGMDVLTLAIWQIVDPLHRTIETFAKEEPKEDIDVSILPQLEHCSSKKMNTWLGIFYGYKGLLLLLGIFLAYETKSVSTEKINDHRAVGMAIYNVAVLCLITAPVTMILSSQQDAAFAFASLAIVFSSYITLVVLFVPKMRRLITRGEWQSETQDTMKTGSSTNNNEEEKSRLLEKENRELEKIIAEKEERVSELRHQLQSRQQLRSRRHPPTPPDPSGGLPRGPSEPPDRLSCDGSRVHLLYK
GABAB receptor (heterodimer of GABAB1 and GABAB2), untagged and SNAP-tagged subunits in three combinations, sequence (O88871 41-940): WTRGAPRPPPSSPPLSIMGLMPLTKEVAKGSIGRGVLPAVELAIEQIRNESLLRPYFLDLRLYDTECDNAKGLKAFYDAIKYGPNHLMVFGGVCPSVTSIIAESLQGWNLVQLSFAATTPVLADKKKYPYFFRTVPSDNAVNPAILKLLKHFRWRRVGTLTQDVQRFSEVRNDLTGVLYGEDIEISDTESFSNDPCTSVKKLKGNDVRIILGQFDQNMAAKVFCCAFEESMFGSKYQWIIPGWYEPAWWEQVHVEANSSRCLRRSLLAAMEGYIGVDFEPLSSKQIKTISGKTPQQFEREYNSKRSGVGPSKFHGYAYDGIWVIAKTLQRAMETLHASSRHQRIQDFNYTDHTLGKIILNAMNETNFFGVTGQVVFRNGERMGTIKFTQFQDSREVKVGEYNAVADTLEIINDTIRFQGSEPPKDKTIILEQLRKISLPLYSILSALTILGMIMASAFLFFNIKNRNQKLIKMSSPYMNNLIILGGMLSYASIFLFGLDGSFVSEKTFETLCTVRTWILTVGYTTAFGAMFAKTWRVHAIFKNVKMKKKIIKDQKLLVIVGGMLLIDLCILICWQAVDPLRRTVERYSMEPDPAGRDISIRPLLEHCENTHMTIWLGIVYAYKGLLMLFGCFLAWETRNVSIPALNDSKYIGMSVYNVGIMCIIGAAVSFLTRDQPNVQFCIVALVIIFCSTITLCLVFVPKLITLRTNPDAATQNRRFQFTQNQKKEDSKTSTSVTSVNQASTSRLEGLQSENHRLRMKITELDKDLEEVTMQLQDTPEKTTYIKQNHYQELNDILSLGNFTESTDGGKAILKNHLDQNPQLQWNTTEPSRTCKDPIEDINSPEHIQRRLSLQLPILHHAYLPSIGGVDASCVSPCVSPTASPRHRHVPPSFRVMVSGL

| stoichiometry N (per diffusing complex) [1] | stoichiometry N (subunits/complex) [2] | Substance |
| --- | --- | --- |
| 2 to 8 | – | GABAB receptor (heterodimer of GABAB1 and GABAB2), untagged and SNAP-tagged subunits in three combinations (from UniProt Q9Z0U4 20-960; O88871 41-940) (complex) |
| – | 2.3 | mGlu2 mutated to be locked in the inactive conformation (HA-ST-mGlu2-515NGlyc-L698C-L729C-F756D), cross-linked with CuP (from UniProt P31421 19-872) (receptor) |
